Measurements taken from patent US6034062A, “Bone morphogenetic protein (BMP)-9 compositions and their uses” (Genetics Institute, Inc., priority 1997, dated 2000).
Read-outs that look alike come from different tables or passages of the source.

Experiments:
[1] = test system: NMuli; assay: 125I-BMP-9 binding to NMuli liver cell line; details: iodinated CHO-derived BMP-9
Experimental: BMP-9 responsiveness in parenchymal liver cells is tested by screening four liver cell lines for their ability to bind iodinated, CHO-derived BMP-9. […] Specific binding of BMP-9 to HepG2 cells is carried out by incubating HepG2 cells grown to confluence in Dulbecco's Modified Eagle's Medium (DME) containing 10% heat-inactivated fetal calf serum (FCS) on gelatinized 6 well plates with 2 ng/ml ^125 I-BMP-9 and increasing concentrations of unlabelled BMP-9 in binding buffer (136.9 mM NaCl, 5.37 mM KCl, 1.26 mM CaCl2, 0.64 mM MgSO4, 0.34 mM Na2 HPO4, 0.44 mM KH2 PO4, 0.49 mM MgCl2, 25 mM HEPES and 0.5% BSA, pH 7.4) for 20 hours at 4° C. to achieve binding equilibrium. This incubation follows a one hour preincubation at 37° C. in binding buffer alone. For crosslinking experiments, the cells were incubated with 500 μM disuccinimidyl suberate for 20 minutes at […] following binding. Cell extracts were analyzed on SDS-PAGE. […] The curvilinear nature of the Scatchard plot indicates negative cooperativity among BMP-9 receptors or that HepG2 cells express at least two populations of BMP-9 receptors with different affinities. Crosslinking analysis on HepG2 cells with ^125 I-BMP-9 yields two binding proteins of apparent molecular weights of 54 and 80 kD. […]

[2] = test system: WI-38 cells; assay: Cell proliferation, [3H]thymidine incorporation, WI-38; type: cell-based; details: high doses of rhBMP-9, 24 h
Experimental: (§1) Several cell lines are tested for BMP-9 responsiveness in vitro. Cell proliferation, as indicated by [^3 H]thymidine incorporation, is determined in cell lines derived from kidney and lung. Cell proliferation is determined by measuring [^3 H]thymidine incorporation in subconfluent cells treated for 24 h with or without growth factors. NRK-52E (ATCC CRL 1571), WI-38 (ATCC CCL-75), CCD-11Lu (ATCC CCL-202), CCD-16Lu (ATCC CCL-204), and A-549 (ATCC CCL-185) cell lines are placed at 10^4 cells/well in 96 well plates and assayed for [^3 H]thymidine incorporation as described above. IMCD-3 cells (ATCC #CRL-2123) are cultured in a collagen matrix as described by Barros et al., PNAS USA 92:4412-4416 (1995), and treated with growth factors for 6 days to allow tubule formation.

[3] = test system: NRK-52E kidney epithelial cells; assay: Cell proliferation, [3H]thymidine incorporation, NRK-52E; type: cell-based; details: subconfluent, 24 h
Experimental: as §1

[4] = test system: lung plasma membranes; assay: [125I]rhBMP-9 binding to lung plasma membranes; set-up: species or system rat
Experimental: (§2) To determine potential target tissues for BMP-9, plasma membrane preparations from adult rat organs are screened for specific [^125 I]rhBMP-9 binding. Plasma membranes are prepared by the methods of Neville, J. Biophys Biochem Cytol 8:412-422 (1960) and Ray, Biochim Biophys Acta 196:1-9 (1970) with the following modifications: Fresh tissues from adult male Long-Evans rats are homogenized with 10 strokes of a teflon homogenizer. Plasma membranes are collected from discontinuous sucrose gradients at 37%/41% sucrose interface and the 41%/45% sucrose interface. Homogenization buffer and sucrose solutions are supplemented with 0.7 μg/ml leupeptin, 2 μg/ml aprotinin and 240 μg/ml pefabloc. Protein levels in plasma membrane preparations are determined by the bicinchoninic acid assay (Pierce, Rockford, Ill.) using immunoglobulin G as a standard.
(§3) BMP-9 binding is carried out by suspending plasma membranes at 30 μg/100μl in binding buffer (136.9 mM NaCl, 5.37 mM KCl, 1.26 mM CaCl2, 0.64 mM MgSO4, 0.34 mM Na2 HPO4, 0.44 mM KH2 PO4, 0.49 mM MgCl2, 25 mM HEPES and 0.5% BSA, pH 7.4) containing o.5 ng [^125 I]rhBMP-9. Binding is allowed to equilibrate by incubation for 16 h at 4° C. […]
(§4) To verify that this specific binding is of high affinity, a more complete displacement profile is determined with lung and kidney plasma membranes.

[5] = test system: BMP-9 receptors expressed on HepG2 cells; assay: 125I-BMP-9 binding to HepG2 cells
Experimental: BMP-9 responsiveness in parenchymal liver cells is tested by screening four liver cell lines for their ability to bind iodinated, CHO-derived BMP-9. […] Specific binding of BMP-9 to HepG2 cells is carried out by incubating HepG2 cells grown to confluence in Dulbecco's Modified Eagle's Medium (DME) containing 10% heat-inactivated fetal calf serum (FCS) on gelatinized 6 well plates with 2 ng/ml ^125 I-BMP-9 and increasing concentrations of unlabelled BMP-9 in binding buffer (136.9 mM NaCl, 5.37 mM KCl, 1.26 mM CaCl2, 0.64 mM MgSO4, 0.34 mM Na2 HPO4, 0.44 mM KH2 PO4, 0.49 mM MgCl2, 25 mM HEPES and 0.5% BSA, pH 7.4) for 20 hours at 4° C. to achieve binding equilibrium. This incubation follows a one hour preincubation at 37° C. in binding buffer alone. For crosslinking experiments, the cells were incubated with 500 μM disuccinimidyl suberate for 20 minutes at […] following binding. Cell extracts were analyzed on SDS-PAGE. […] To test the binding specificity of the receptors for BMP-9, HepG2 cells were incubated with ^125 I-BMP-9 and a 250-fold excess of different unlabeled ligands.

[6] = test system: liver plasma membranes; assay: [125I]rhBMP-9 binding to liver plasma membranes; details: adult rat liver plasma membranes, displaceable by 100-fold excess of unlabeled rhBMP-9
Experimental: as §2, §3, §4

B1: BMP-9: recombinant human bone morphogenetic protein-9, mature amino acids #1-#110 of SEQ ID NO:9, expressed in CHO cells (protein)
chain: TRECSRSCPRTAPQRQVRAVTRRTRMAHVAAGSTLARRKRSAGAGSHCQKTSLRVNFEDIGWDSWIIAPKEYEAYECKGGCFFPLADDVTPTKHAIVQTLVHLKFPTKVG
modifications: 125I-iodinated as tracer; unlabelled BMP-9 used as the displacing ligand
specific binding of 125I-BMP-9 [1]: to some extent | cell proliferation ([3H]thymidine incorporation) [2]: statistically significant stimulation | cell proliferation ([3H]thymidine incorporation) [3]: inhibited proliferation | specific [125I]rhBMP-9 binding ([4]; adult rat lung plasma membranes, displaceable by 100-fold excess of unlabeled rhBMP-9): evident | Kd ([4]; rat lung plasma membranes): 0.6 nM | Kd ([5]; HepG2 cells, Scatchard analysis, 20 hours at 4° C., read-out: Kd of high affinity receptors): 0.3 nM | Kd ([5]; HepG2 cells, estimated, read-out: Kd of the high affinity binding sites): ~0.27 nM | Kd (estimated binding affinity) expressed ([5]; HepG2 cells, printed as Kd =0.3 nM=8 ng/ml): 8 ng/mL | specific binding of 125I-BMP-9 ([5]; HepG2 liver cell line, iodinated CHO-derived BMP-9): highest degree of binding | specific [125I]rhBMP-9 binding [6]: evident
